Laboratory results: patent US20030049702A1

Tests used:
[1] = target: GST-DR4 (residues 269-468) (UniProt O00220); test: Scatchard analysis: DAP3-His6 at 0.1-1 µM with 1.0 µg GST-DR4 on glutathione-Sepharose, free and bound DAP3 by immunoblot densitometry
[2] = target: GST-DR4 (residues 269-468) (UniProt O00220); test: GST pull-down on glutathione-Sepharose, immunoblot against input lane

Sequence of GST-DR4 (residues 269-468) (O00220 269-468, form in doubt): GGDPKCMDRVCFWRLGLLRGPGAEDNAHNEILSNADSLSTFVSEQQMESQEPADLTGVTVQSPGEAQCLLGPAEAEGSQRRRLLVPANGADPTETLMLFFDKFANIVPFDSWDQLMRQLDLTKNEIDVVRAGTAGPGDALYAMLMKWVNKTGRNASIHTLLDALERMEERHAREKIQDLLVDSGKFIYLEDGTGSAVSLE

Kd [1]: 16 nM | percent of input bound [2]: 10 to 20%
Substance: DAP3-His6
